Data taken from the supplement of paper PMC12042874.
± gives the uncertainty stated by the source.

Test: amyloid nucleation score (Sup35N fusion, yeast selection) (log enrichment); library NNK1; higher = more nucleation; inactive = no reads after selection
Outline: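 Three technical output replicates were used for random libraries. Psi-negative yeast expressing peptides of 20 random codons fused to Sup35N were induced with 100 μM copper sulfate for 24 hours and grown 7 days at 30°C on medium lacking adenine and uracil, and input and output plasmid inserts were Illumina-sequenced, excluding sequences with under 100 input reads. The nucleation score is the DiMSum log enrichment of output over input reads, centred on the mode score of non-aggregating sequences.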

Substance	amyloid nucleation score
ISSWTHVW	1.23 ± 0.85
VRHLRR	-0.496 ± 0.55
VCISWLRDTGADC	2.12 ± 0.23
SLKCSNGR	0.49 ± 0.3
SVGLTFNGGVYCSHVERTSW	1.93 ± 0.19
AGKCIVQYKGLKNVR	0.91 ± 0.75
FNSRTAGCRLSTQMFSRKQT	0.402 ± 0.92
LCCFKSFVSENMN	6.447 ± 0.05
GMDLQVMSHCASIHNNS	-0.199 ± 0.37
FDRMNCALGVPLWDALKDGS	3.4 ± 0.14
VLIMYYGCLDDFLLRDYSLL	0.856 ± 0.67
SNWTPCQSESP	-0.311 ± 0.55
IAGRRPALYRVWNSRCSLLN	0.014 ± 0.49
TSSWQVPVNAPEVN	inactive
DSMKN	1.39 ± 0.13
AYFMVHLLIF	1.34 ± 0.13
FFGCFGLYYAMAHLLYPSLE	1.48 ± 0.8
ATHKNWIKRDTVHSLDGC	0.041 ± 0.26
HLTKRGLSQTKRSAALQRVG	0.514 ± 1.2
SYLFWDRCYSA	-0.247 ± 0.4
IKTAFMVMNNGKDVMSRSWG	0.402 ± 0.4
DPEVIGLIVCNM	-1.16 ± 1
LLYLCYIRCI	0.952 ± 0.65
FWRGDRLVMSFEE	-0.285 ± 0.83
QYNTLCFGMSTGYLYLNISS	2.83 ± 0.19

Substance	amyloid nucleation score
VNNYTF	0.234 ± 0.28
NMIVKSATEAANSP	1.25 ± 0.56
CLHFFTQTTVWCKHVSSQKV	0.21 ± 0.48
VSEIFFWFKSWRRRLRLRMG	inactive
VLGRRKMIQVNFNFKYLSWD	1.62 ± 0.45
FRDSTET	0.495 ± 1.4
EILETGRCLSFLYRIVDGCI	inactive
ICSRTVKFYSSSF	-2.03 ± 2.4
MMAFCS	0.264 ± 0.39
LQLWLMDGSSRGRWV	0.12 ± 0.64
LAFMYVGKYARRGLTIYNLI	-0.335 ± 0.54
NAYRYMCRCGFLSLRAGWRV	inactive
SLSRMVGCTTVF	inactive
LGHGHIDGQYKGYRVKWTYD	-0.644 ± 0.35
QIFVWAFPPSGVSGHVWSRD	6.497 ± 0.049
SGLIKVGISLRLHYGLYLRY	0.684 ± 0.88
QNQSFLINPWQGSKLVDPTA	0.253 ± 0.53
MDWYIVYRPAYTLLCRIHVR	1.16 ± 0.39
TVKCILYSRFHKGCGWRCER	3.15 ± 0.14
DMGSHIARSTKMVPICGGSR	-0.259 ± 1.4
GLALHGIEWVCCVQDQSFDR	7.08 ± 0.071
GRFFVHEVGMFQTSGQ	-0.187 ± 1.3
TASGVDIVRRGCPRLVMLVV	-0.42 ± 0.43
CVGGWWKTRHMSIWNWIWWL	0.197 ± 0.9
YVVLASVMLITYVRA	0.786 ± 0.38

Substance	amyloid nucleation score
ASVAHLCGQLTVDTGFRITG	0.138 ± 0.33
SFGVSNTSYWTAEKVVGYAT	0.501 ± 0.7
LKNGSDSILDARVYLGG	-0.221 ± 0.51
HRILRESRAGRF	-0.396 ± 0.36
LHIAMTVYC	2.42 ± 0.13
SGAYATVPVYQEWLSQIKLL	0.327 ± 1
GVWLVSDRKVADVRSNYCFD	-2.18 ± 2.7
IVRNGQATWSWILRGPSWVG	-1.32 ± 0.48
CRLDGT	-0.36 ± 0.72
LAITDKCSRALSLLSCPDF	0.265 ± 0.63
AFDLTEVQFLRVVKS	-0.259 ± 0.44
FRGFR	-0.235 ± 0.4
MQVVVYKYLTMYQR	1.29 ± 0.76
LSAWPTIEEMVPAHMKTTHA	0.526 ± 0.54
RIRTIPFAPRNESPRCIGKF	-1.5 ± 0.86
TFVSLATTDFPPNFSLKLFV	-0.579 ± 0.49
SLRSQCGSVNLIFMVMFSVW	-0.236 ± 1.2
TNVFGILYFEYFLVLDG	0.208 ± 0.3
PERVVYANATAYRLLVKDAL	0.247 ± 0.33
LNCLFLFSISAFRVLASHIM	0.448 ± 0.42
IWKSSRGPLIGLVVLDIARR	1.01 ± 0.79
LLSMLRCYWVSRLFV	-0.079 ± 0.65
AANCTMMFKKPSWNVTRERV	0.26 ± 0.34
FLEKSFLCSWSLVRTEGEWA	-0.333 ± 0.57
WADTPRQLGCSSSSTISCSL	-0.216 ± 0.4

Substance	amyloid nucleation score
VPSSTVVDHSIYRGDMPSFA	0.163 ± 0.41
WTYRQLKSAGKEHVYFLKVR	-0.031 ± 1.2
TSSEFDLLNGQFANGYVLVH	0.546 ± 0.5
NFPKHFSSALRF	-0.081 ± 0.35
LDQKTFWLSVPVSWQIPADM	0.477 ± 0.61
WGNTRYGTAASVCVTEVKGS	0.048 ± 0.4
SNAPFRKAQQRGLYKWWSWR	0.728 ± 0.54
GRRVFGRYVQINNGPISRFF	0.266 ± 1.1
LVVAVW	0.269 ± 0.35
ADIPCQNCVSYVRYFGLNVI	-0.094 ± 0.48
DEDHFYTSRML	0.639 ± 1.1
DLPLGQRYSCAQVGGWSYYE	0.556 ± 0.45
GHWDTVGIR	-0.292 ± 0.28
RRPIGMACGDGRVYFWDHTA	-0.036 ± 0.47
LFLIV	-0.08 ± 0.24
IYVFSALRCTGTEVWYRLVT	-1.2 ± 1.4
FRWTLTSLRSVNDFSG	0.948 ± 0.65
ITLNWKIAEFSRCTVQLQNL	6.324 ± 0.061
GVSMFHRFSSHNWMCCWFVG	7.654 ± 0.064
RLTYSSCSGNLWYFRFKSVE	0.415 ± 0.67
TKNSLGHNMLIDWGSCVGGC	1.23 ± 0.31
TLVFYRVQGFGIPKSQLTGE	-0.675 ± 1.1
TIALRMNRINLDFKYCFNSF	1.49 ± 0.69
GLVNLADTGTVVDPSKGWLG	-0.441 ± 0.61
RDRCT	0.49 ± 0.36

Substance	amyloid nucleation score
YDWNNLDVLLHCLFFGDKRR	-0.021 ± 0.26
GFYDRYVNAGMECAGPSSQR	5.24 ± 0.079
SFLSVFAMFYVQLPCHNMVS	-0.15 ± 0.64
TEKAPGTGAKQANSKSSAYA	inactive
KQNSKLFLIFIGNALGQVTV	5.09 ± 0.064
NRLKFSLV	-2.62 ± 2.7
CIDYYLCLNMYRTGWYLRLC	inactive
MEPFSAC	-0.276 ± 1.9
VYNLFVEVVPILKNRLWFNY	4.44 ± 0.094
TTVKYLWLYLGFVLGQGVNG	-0.303 ± 0.25
GHNINFGVDCGTVGRFCNTW	-0.54 ± 0.61
RVRLVWSSCQGDEGFYGLCP	1.36 ± 0.18
TLNVFDH	-0.421 ± 0.4
NWMCKHSVGP	0.665 ± 0.72
CFPSSVFVGCIFF	7.532 ± 0.044
SKEESPMTFVWILGGHSELS	-0.448 ± 0.32
PAPLQIRNMSSNAKTR	inactive
MEFNMWYLFGDLLVTLDWPK	0.044 ± 0.45
YALRVSR	-0.346 ± 0.43
TFTCSFTQLRQLFFFVSQGC	0.214 ± 0.46
HLDCGCRTFGLTWYWTKDCV	-0.143 ± 0.49
KNVSLRYILAYCRHYKLTHG	0.19 ± 1.2
YRICVKSSVQAGRLMFKVTG	-1.61 ± 2.7
YNISDSTSPMVASRMGRLGQ	0.364 ± 0.45
AKYPMQRLLRFLFLVVR	0.374 ± 0.48

Substance	amyloid nucleation score
HVPSFRFFFRDNLI	0.385 ± 0.46
VIKMFRRSDDIVVSKPLRE	-0.3 ± 0.5
SYKGWVGLVLRVETDGNWSR	2.28 ± 0.13
YSTYQ	0.369 ± 0.29
ESVLWVFYV	0.1 ± 0.41
NSFWTLVFSGHPACWLTVFI	-0.75 ± 0.59
TWMLVEVVNCCLYTHVFYR	4.27 ± 0.061
VWYWLSNNLDVW	0.809 ± 0.98
TCLWSYSNAFENPR	1.85 ± 0.31
PWCFTLFALAPP	-0.077 ± 1.7
PIKHCRRRNTDRRKTGMSQV	-0.447 ± 0.62
ELIHILDLVVTPGRFGRPVN	2.58 ± 0.36
MNALGSTYWDQQSAQQSMWS	4.92 ± 0.068
YSWILKKWVFVYSLFTSGHM	0.278 ± 0.55
NINFGVVSYSVYMLL	6.649 ± 0.054
VFLISY	0.199 ± 0.42
LVSDSYNSLSLQDNLALLLI	0.261 ± 0.4
ELCAQYVIFSFASSRSYDSY	0.579 ± 0.28
VMSGRCFTRCAFGLQRVPSV	0.033 ± 0.63
WIPSFIQMDTVVRDTVNKEF	1.09 ± 0.74
CFVVCDMAF	inactive
MRTVIITCCRTFECPMERCS	-2.56 ± 1.4
LDTGVMMEIKICIHYRDCYD	1.84 ± 0.21
GFSKMLLAIVSIQDKGSWDA	2.41 ± 0.17
TYANGGALALAIVAVKC	-0.398 ± 0.64

Substance	amyloid nucleation score
PTFFHNCVDTFRSS	-0.026 ± 0.47
SPTVERSTGIR	-0.089 ± 0.49
HGMIRWYSYTSCHSYKVSGH	-0.021 ± 0.33
KLVDAGFVD	0.759 ± 0.35
TWSACICKRMVLPCDFQNGS	0.808 ± 0.9
VGCSRIDDPRSGAEALRSYC	1.08 ± 0.78
DAEWF	0.393 ± 0.27
WSLWLRRDFSR	0.76 ± 0.61
FTKGNYCSGLLGSSSRWTPF	0.926 ± 0.74
PSTRRVGDWDFLTSSTGRTM	-0.403 ± 0.35
LRCFYEYGFHKRTKVDSIDT	inactive
TGTDVQGRSRLSDRAWGGYD	-0.098 ± 0.36
KVLTRPG	-0.213 ± 0.64
VNAMSLLILDAVLDKEQW	0.921 ± 1
FYIVIDYFRNCAG	0.005 ± 0.38
HLSYI	-0.455 ± 1.7
HALEKLDKFRFTAS	0.484 ± 0.64
IARLHT	inactive
NSLCEFSMKMFTYNSMGGFI	1.86 ± 0.26
GRGKPMTLASKFIAGRFVF	0.521 ± 0.97
LSTMRLGHYCLAYCRLGCLY	0.827 ± 0.41
CDNRRNFSSWVVDISKYITI	-0.946 ± 0.57
VGWGAMQGLMSGGLYIPV	-0.671 ± 2.1
